Our source for the indel activity values is patent US20240035010, “COMPOSITIONS COMPRISING A VARIANT POLYPEPTIDE AND USES THEREOF” (Arbor Biotechnologies, Inc., published 2024).

Data set [1] concerns the target T1, variant nuclease T338G combination (P14R, D32R, I61R, E311R, T338G).
T1 chain: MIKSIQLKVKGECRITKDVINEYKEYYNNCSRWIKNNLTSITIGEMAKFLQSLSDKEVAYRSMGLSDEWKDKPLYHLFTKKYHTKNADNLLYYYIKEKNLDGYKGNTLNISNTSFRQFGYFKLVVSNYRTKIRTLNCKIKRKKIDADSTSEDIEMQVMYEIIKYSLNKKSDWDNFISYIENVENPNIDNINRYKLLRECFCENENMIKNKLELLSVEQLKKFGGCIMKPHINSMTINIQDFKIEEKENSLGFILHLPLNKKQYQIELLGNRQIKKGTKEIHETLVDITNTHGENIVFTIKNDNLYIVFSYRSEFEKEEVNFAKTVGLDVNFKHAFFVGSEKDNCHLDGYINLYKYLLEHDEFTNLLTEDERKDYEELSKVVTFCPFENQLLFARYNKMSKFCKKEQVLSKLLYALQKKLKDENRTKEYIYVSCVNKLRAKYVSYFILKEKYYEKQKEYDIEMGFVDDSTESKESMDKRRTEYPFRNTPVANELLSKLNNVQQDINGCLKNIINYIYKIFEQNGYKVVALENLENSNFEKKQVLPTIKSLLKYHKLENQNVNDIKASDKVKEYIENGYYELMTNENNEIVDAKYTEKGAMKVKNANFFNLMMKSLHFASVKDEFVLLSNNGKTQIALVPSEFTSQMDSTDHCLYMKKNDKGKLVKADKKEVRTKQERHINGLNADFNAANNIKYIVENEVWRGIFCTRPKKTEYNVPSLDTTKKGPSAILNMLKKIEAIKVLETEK
As to the kind of experiment: cell_activity; PAM 5'-TTTA-3'. Particulars: tags: pcDNA3.1 expression. The method, boiled down: (§1)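 HEK293T cells were lipofected with nuclease plasmid (pcDNA3.1 backbone) plus RNA guide plasmid, with guide omitted in negative controls. After ~72 h cells were lysed in QuickExtract and % indels were derived from NGS reads, averaged over two bioreplicates and two technical replicates.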

Data set [2] deals with T2, variant nuclease D55G/E736G combination (P14R, D32R, I61R, E311R, D55G, E736G).
T2 chain: T1 chain with D55G, G338T, E736G
As to the kind of experiment: cell_activity; PAM 5'-TTTA-3'. Particulars: tags: pcDNA3.1 expression. The method, boiled down: as §1

Residue numbers refer to the chain shown, from its start.

B1: VEGFA crRNA ; VEGFA target (ssRNA ; dsDNA)
RNA: CUUGUUGUAUAUGUCCUUUUAUAGGUAUUAAACAACUCCAGACCACCAAUGGGCAC
DNA 1: TCCAGACCACCAATGGGCAC
DNA 2: GTGCCCATTGGTGGTCTGGA
On to B1, for which the indel activity in data set [1] was 2.72 fold of WT; in data set [2], 3.06 fold of WT.
